Measured values as given in patent US11168306B2, “Phage wrapping” (priority 2014, dated 2021).
Ends that are not written are not given here.

Legend:
PSMA dimer = PSMA dimer (Homo sapiens, UniProt Q04609); assay: Phage-based ELISA, binding to PSMA dimer
Procedure: In a phage-based ELISA, specific wells of a 96-well microtiter plate (Nunc Maxisorp) were coated with 100 μL/well of a solution of PSMA (5.56 or 11.1 nM) monomer or dimer protein diluted in PBS. The plate was incubated for 1 h on a shaker at room temperature. The coating solution was removed, and the wells were blocked with 320 μL/well of 0.2% w/v solution of BSA in PBS for 30 min, and washed three times with 300 μL/well of wash buffer PT (0.05% TWEEN-20 in PBS). […] The wells on the ELISA plate were then incubated with the phage samples (100 μL/well) for 1 h. The wells were washed five times with PT and then incubated with horseradish-peroxidase-conjugated anti-M13 antibody (100 μL/well, 1:5000 dilution in PBT) for 30 min. The wells were washed three times with PT, and two times with PBS. […] Following an appropriate incubation time, HRP activity was measured spectrophotometrically at 450 nm using a microtiter plate reader (Bio-Tek).
Phage-based wrapping ELISA: Phage (5 nM in 225 μL) and 2 μL of the purified cycloaddition reaction product, KCS-1/2 (308.7 μM) in water: acetonitrile (60:40), were mixed and serially diluted in PBT. […] Levels of phage binding were quantified as described above.

PSMA = PSMA (Homo sapiens, UniProt Q04609); assay: Electrochemical impedance biosensing with virus-PEDOT films; type: binding; details: PBF-TWEEN
Sequence of PSMA (Q04609 44-750): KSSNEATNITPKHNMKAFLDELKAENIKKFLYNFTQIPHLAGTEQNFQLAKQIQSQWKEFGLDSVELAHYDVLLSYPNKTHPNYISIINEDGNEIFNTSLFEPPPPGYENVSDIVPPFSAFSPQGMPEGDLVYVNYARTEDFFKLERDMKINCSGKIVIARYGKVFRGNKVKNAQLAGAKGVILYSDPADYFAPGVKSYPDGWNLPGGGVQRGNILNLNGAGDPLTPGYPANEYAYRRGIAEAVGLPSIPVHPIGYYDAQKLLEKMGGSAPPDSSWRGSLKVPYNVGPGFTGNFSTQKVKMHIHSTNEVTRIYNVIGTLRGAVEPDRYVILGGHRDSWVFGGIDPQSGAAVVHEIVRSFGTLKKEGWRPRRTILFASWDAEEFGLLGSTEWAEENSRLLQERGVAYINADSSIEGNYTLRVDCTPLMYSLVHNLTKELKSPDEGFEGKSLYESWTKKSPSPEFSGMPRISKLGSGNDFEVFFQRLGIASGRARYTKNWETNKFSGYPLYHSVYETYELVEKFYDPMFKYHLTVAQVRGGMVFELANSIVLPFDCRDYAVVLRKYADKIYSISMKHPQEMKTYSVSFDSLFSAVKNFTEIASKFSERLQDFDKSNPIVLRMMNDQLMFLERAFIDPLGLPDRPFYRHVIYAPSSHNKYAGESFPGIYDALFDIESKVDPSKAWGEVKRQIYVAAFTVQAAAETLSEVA
Procedure: Biosensing with Virus-PEDOT Films. To explore whether these wrapped virus particles could be exploited to create virus-electrode biosensors with a higher sensitivity for PSMA, films of PEDOT were prepared on gold electrodes by electropolymerization in the presence of phage-2 (FIG. 28). […] SEM imaging confirms incorporation of phage into the bioaffinity matrix; both filament-like and less extended features having dimensions consistent with phage integrated as rope-like bundles into the polymer at various angles to the film (FIGS. 4B-4C) were observed. The KCS-1 wrapper was then applied in vitro simply by exposing the resultant phage-2 film for a short time to an aqueous solution of the wrapper. For the biosensing measurements, only the highest affinity ligand combination of phage-2 wrapped with KCS-1 was used, and it was studied in comparison to phage-2 films.
EIS To Quantify PSMA Binding. […] The real component of the impedance, R, in particular, increases upon PSMA binding. […] The films incorporating phage-2 wrapped with KCS-1 provide higher sensitivity for PSMA detection than films incorporating unwrapped phage-2 (FIG. 4F). For example, the relative impedance change, ΔR/Ro, at each concentration of PSMA is 3-fold higher. […]

Solubility in water = type: physicochemical; details: previous studies

Sequence of PSMA dimer (Q04609 44-750 limits assumed): as the sequence (Q04609 44-750) above

Substance	increase in apparent affinity to PSMA versus other wrapper concentrations (PSMA dimer; 2.7 μM KCS-1, FIG. 7)	binding to PSMA by PEDOT film (negative controls) (PSMA)	relative binding affinity to PSMA dimer (PSMA dimer; phage-based ELISA)	solubility in water (Solubility in water)
KCS-1: chemically synthesized wrapper: K14 oligolysine click-linked to PSMA ligand 1 (peptide 1 KKKKKKKKKKKKKK; peptide 2 KKKCALCEFLG; cysteine pairing not given here; also: K14 oligolysine click-linked to PSMA ligand 1)	~15%	no significant binding to PSMA		
peptide 1: PSMA-binding peptide ligand, amino acid sequence CALCEFLG (SEQ ID NO: 1)			much lower apparent affinity for PSMA than peptide 2	limited solubility in water
